Experimental data taken from the supplement of paper PMC11246515.
± gives the standard deviation of the averaged measurements.

Assay: total protein half-life in vivo (active degradation + dilution); higher = more stable protein
[1] = E. coli NCM3722 delta-clpP delta-lon delta-hslV, growth: N-lim chemostat, doubling time 6 h
[2] = E. coli NCM3722 delta-clpP, growth: N-lim chemostat, doubling time 6 h
[3] = E. coli NCM3722 delta-hslV, growth: N-lim chemostat, doubling time 6 h
[4] = E. coli NCM3722 delta-lon, growth: N-lim chemostat, doubling time 6 h
[5] = E. coli NCM3722 delta-smpB, growth: N-lim chemostat, doubling time 6 h
[6] = wild type E. coli NCM3722, growth: C-lim chemostat, doubling time 3 h
[7] = wild type E. coli NCM3722, growth: C-lim chemostat, doubling time 6 h
[8] = wild type E. coli NCM3722, growth: C-lim chemostat, doubling time 12 h
[9] = wild type E. coli NCM3722, growth: N-lim chemostat, doubling time 6 h
[10] = wild type E. coli NCM3722, growth: N-lim chemostat, doubling time 12 h
[11] = wild type E. coli NCM3722, growth: P-lim chemostat, doubling time 6 h
[12] = wild type E. coli NCM3722, growth: P-lim chemostat, doubling time 12 h

MKLYNLKDHNEQVSFAQAVTQGLGKNQGLFFPHDLPEFSLTEIDEMLKLDFVTRSAKILSAFIGDEIPQEILEERVRAAFAFPAPVANVESDVGCLELFHGPTLAFKDFGGRFMAQMLTHIAGDKPVTILTATSGDTGAAVAHAFYGLPNVKVVILYPRGKISPLQEKLFCTLGGNIETVAIDGDFDACQALVKQAFDDEELKVALGLNSANSINISRLLAQICYYFEAVAQLPQETRNQLVVSVPSGNFGDLTAGLLAKSLGLPVKRFIAATNVNDTVPRFLHDGQWSPKATQATLSNAMDVSQPNNWPRVEELFRRKIWQLKELGYAAVDDETTQQTMRELKELGYTSEPHAAVAYRALRDQLNPGEYGLFLGTAHPAKFKESVEAILGETLDLPKELAERADLPLLSHNLPADFAALRKLMMNHQ
total protein half-life in vivo [1]: 5.07 ± 0.61 h | total protein half-life in vivo [2]: 4.78 ± 0.058 h | total protein half-life in vivo [3]: 5.09 ± 0.18 h | total protein half-life in vivo [4]: 5.28 ± 0.25 h | total protein half-life in vivo [5]: 4.57 ± 0.11 h | total protein half-life in vivo [6]: 3.25 ± 0.27 h | total protein half-life in vivo [7]: 6.01 ± 0.15 h | total protein half-life in vivo [8]: 11.9 ± 0.91 h | total protein half-life in vivo [9]: 4.989 ± 0.048 h | total protein half-life in vivo [10]: 8.57 ± 0.57 h | total protein half-life in vivo [11]: 5.76 ± 0.32 h | total protein half-life in vivo [12]: 11.9 ± 0.51 h

MATFSLGKHPHVELCDLLKLEGWSESGAQAKIAIAEGQVKVDGAVETRKRCKIVAGQTVSFAGHSVQVVA [P0AAS7]
total protein half-life in vivo [1]: 4.09 ± 0.36 h | total protein half-life in vivo [2]: 3.39 ± 0.29 h | total protein half-life in vivo [3]: 2.72 ± 0.6 h | total protein half-life in vivo [4]: 4.18 ± 1.2 h | total protein half-life in vivo [5]: 2.3 ± 0.15 h | total protein half-life in vivo [6]: 2.4 ± 0.59 h | total protein half-life in vivo [7]: 4 ± 0.91 h | total protein half-life in vivo [8]: 4.46 ± 0.44 h | total protein half-life in vivo [9]: 2.71 ± 0.057 h | total protein half-life in vivo [10]: 3.68 ± 0.15 h | total protein half-life in vivo [11]: 1.97 ± 0.26 h | total protein half-life in vivo [12]: 3.576 ± 0.012 h

P0ABD3
total protein half-life in vivo [2]: 5.98 ± 0.58 h | total protein half-life in vivo [3]: 6.83 ± 1.2 h | total protein half-life in vivo [4]: 6.67 ± 0.28 h | total protein half-life in vivo [5]: 6.17 ± 0.69 h | total protein half-life in vivo [7]: 6.73 ± 1.5 h | total protein half-life in vivo [8]: 11.4 ± 1.6 h | total protein half-life in vivo [9]: 5.57 ± 0.29 h | total protein half-life in vivo [10]: 13.5 ± 2.1 h | total protein half-life in vivo [11]: 5.92 ± 0.82 h | total protein half-life in vivo [12]: 13.2 ± 0.8 h

MYPVDLHMHTVASTHAYSTLSDYIAQAKQKGIKLFAITDHGPDMEDAPHHWHFINMRIWPRVVDGVGILRGIEANIKNVDGEIDCSGKMFDSLDLIIAGFHEPVFAPHDKATNTQAMIATIASGNVHIISHPGNPKYEIDVKAVAEAAAKHQVALEINNSSFLHSRKGSEDNCREVAAAVRDAGGWVALGSDSHTAFTMGEFEECLKILDAVDFPPERILNVSPRRLLNFLESRGMAPIAEFADL
total protein half-life in vivo [1]: 4.97 ± 0.41 h | total protein half-life in vivo [2]: 4.01 ± 0.17 h | total protein half-life in vivo [3]: 3.945 ± 0.0077 h | total protein half-life in vivo [4]: 4.67 ± 0.18 h | total protein half-life in vivo [5]: 3.925 ± 0.00062 h | total protein half-life in vivo [6]: 3.11 ± 0.53 h | total protein half-life in vivo [7]: 4.99 ± 0.23 h | total protein half-life in vivo [8]: 9.55 ± 1.1 h | total protein half-life in vivo [9]: 4.04 ± 0.4 h | total protein half-life in vivo [10]: 6.47 ± 0.46 h | total protein half-life in vivo [11]: 5.73 ± 0.19 h | total protein half-life in vivo [12]: 11.9 ± 0.49 h

MEFSPPLQRATLIQRYKRFLADVITPDGRELTLHCPNTGAMTGCATPGDTVWYSTSDNTKRKYPHTWELTQSQSGAFICVNTLWANRLTKEAILNESISELSGYSSLKSEVKYGAERSRIDFMLQADSRPDCYIEVKSVTLAENEQGYFPDAVTERGQKHLRELMSVAAEGQRAVIFFAVLHSAITRFSPARHIDEKYAQLLSEAQQRGVEILAYKAEISAEGMALKKSLPVTL [P0A823]
total protein half-life in vivo [1]: 6.44 ± 0.13 h | total protein half-life in vivo [2]: 5.88 ± 0.28 h | total protein half-life in vivo [4]: 5.97 ± 0.26 h | total protein half-life in vivo [5]: 5.41 ± 0.73 h | total protein half-life in vivo [6]: 3.39 ± 0.092 h | total protein half-life in vivo [7]: 6.23 ± 0.38 h | total protein half-life in vivo [8]: 11.2 ± 0.24 h | total protein half-life in vivo [9]: 5.71 ± 0.11 h | total protein half-life in vivo [10]: 10.2 ± 0.88 h | total protein half-life in vivo [11]: 5.67 ± 0.24 h | total protein half-life in vivo [12]: 13.5 ± 1.4 h

MSDNLPWKTWTPDDLAPPQAEFVPIVEPEETIIEEAEPSLEQQLAQLQMQAHEQGYQAGIAEGRQQGHKQGYQEGLAQGLEQGLAEAKSQQAPIHARMQQLVSEFQTTLDALDSVIASRLMQMALEAARQVIGQTPTVDNSALIKQIQQLLQQEPLFSGKPQLRVHPDDLQRVDDMLGATLSLHGWRLRGDPTLHPGGCKVSADEGDLDASVATRWQELCRLAAPGVV
total protein half-life in vivo [6]: 2.19 ± 0.17 h | total protein half-life in vivo [7]: 3.64 ± 0.27 h | total protein half-life in vivo [8]: 5.33 ± 0.28 h

MSNITIYHNPACGTSRNTLEMIRNSGTEPTIIHYLETPPTRDELVKLIADMGISVRALLRKNVEPYEELGLAEDKFTDDRLIDFMLQHPILINRPIVVTPLGTRLCRPSEVVLEILPDAQKGAFSKEDGEKVVDEAGKRLK [P0AB96]
total protein half-life in vivo [1]: 6.69 ± 0.8 h | total protein half-life in vivo [2]: 5.24 h | total protein half-life in vivo [5]: 3.72 h | total protein half-life in vivo [7]: 6.14 ± 0.37 h | total protein half-life in vivo [8]: 8.79 ± 1.4 h | total protein half-life in vivo [9]: 3.41 ± 1.2 h | total protein half-life in vivo [10]: 6.1 h | total protein half-life in vivo [11]: 5.09 h | total protein half-life in vivo [12]: 9.63 ± 0.02 h

MDHLPMPKFGPLAGLRVVFSGIEIAGPFAGQMFAEWGAEVIWIENVAWADTIRVQPNYPQLSRRNLHALSLNIFKDEGREAFLKLMETTDIFIEASKGPAFARRGITDEVLWQHNPKLVIAHLSGFGQYGTEEYTNLPAYNTIAQAFSGYLIQNGDVDQPMPAFPYTADYFSGLTATTAALAALHKVRETGKGESIDIAMYEVMLRMGQYFMMDYFNGGEMCPRMSKGKDPYYAGCGLYKCADGYIVMELVGITQIEECFKDIGLAHLLGTPEIPEGTQLIHRIECPYGPLVEEKLDAWLATHTIAEVKERFAELNIACAKVLTVPELESNPQYVARESITQWQTMDGRTCKGPNIMPKFKNNPGQIWRGMPSHGMDTAAILKNIGYSENDIQELVSKGLAKVED
total protein half-life in vivo [1]: 6.21 ± 0.21 h | total protein half-life in vivo [2]: 4.41 h | total protein half-life in vivo [3]: 4.77 ± 0.81 h | total protein half-life in vivo [4]: 4.71 h | total protein half-life in vivo [5]: 4.726 ± 0.00071 h | total protein half-life in vivo [6]: > 4 h | total protein half-life in vivo [8]: 13 h | total protein half-life in vivo [10]: 8.76 h | total protein half-life in vivo [11]: 6.27 h
